We go through 19 molecules from publication PMC8967717 (Nature, 2022).

Test [1] has as its target SARS-CoV-2 wild-type spike receptor-binding domain (SARS-CoV-2, WT (MN908947), UniProt P0DTC2).
The target of test [2] is SARS-CoV-2 wild-type spike (S) protein (SARS-CoV-2, WT (MN908947), UniProt P0DTC2).

B1: XGv177 (antibody, V domains shown)
VH: EVQLVESGGGLIQPGGSLRLSCAASGVTVSSNYMTWVRQAPGKGLDWVSVIYSGGSTFYADSVKGRFTISRDNSKNTLYLQMNSLRVEDTAVYYCARDLVDYGLDVWGQGTTVTVSS
VL: DIQLTQSPSFLSASVGDRVTITCRASQGIASYLAWYQQKPGKPPKLLIYAASTLQSGVPTRFSGSGSGTEFTLTITSLQPEDFATYYCQLLSRHPPTFGGGTKVEI
As to B1, the binding result in test [1] and in test [2] was “binds” each time.

B2: XGv266 (antibody, V domains shown)
VH: QITLKESGPTLVRPTQTLTLTCTFSGLSLSAPAEGVGWIRQPPGKALEWLALIYWEGDQRYSPSLKSRLTITKDTSKKQVVLTMTNMDPVDTATYYCARHSVATIFDFWGQGTLVTVSS
VL: QSALTQPASVSGSPGQSITISCTGTSSDVGCCNYVSWYQHHPGKAPKLMIYEVTNRPSGISDRFSGSKSGNTASLTISGLQAEDEAAYYCSSYTTSTARVVFGGGTKLTVL
With B2, the binding result in test [1] and in test [2] was “binds” in each case.

B3: XGV017 (antibody, V domains shown)
VH: EVQLVESGGGLIQPGGSLRLSCAASGVTVSSNYMNWVRQAPGKGLEWVSVIYPGGTRDYSDSVKGRFTISRDSSKNTLYLQMNSLRDEDTAFYYCARDLVVYGMDVWGQGTTVTVTS
VL: DIQLTQSPSSLSASVGDRVTITCRASQGISSYLAWYQQKPGKAPKLLIYAASTLQSGVPSRFSGSGSGTDFTLTISSLQPEDFAAYYCQLLNTYPLTFGGGTKVEIK
On to B3, for which the binding result in test [1] and in test [2] was “binds” each time.

B4: XGv074 (antibody, V domains shown)
VH: EVQLVESGGGLIQPGGSLRLSCAASGITVSANYMSWVRQAPGKGLEWVSVIYSGGSTYYADSVKGRFTISRDHSKNTLYLQMKNLRAEDTAVYYCARDRGSSGYLGDQPYEYWGQGTLVTVSS
VL: DIQMTQSPSSLSASVGDRVTITCQASQDINKYLNWYQQKPGKAPKLLIYGASNLETGVPSRFSGSGSGTDFTFTISSLRPEDIATYYCQQYDPLPVTFGGGTRVEIK
Regarding B4, the binding result in test [1] and in test [2] was “binds” each time.

B5: XGV026 (antibody, V domains shown)
VH: EVQLVESGGGVIQPGGSLRLSCAASEIIVSSNYMNWVRQAPGKGLEWVSVIYPGGSSFYADSVKGRFTISRDNSKNTLYLQMNSLRVEDTAVYYCARDSPHRPGTIWGQGTLVVVSS
VL: DIQMTQSPSSLSASVGDRVTITCRASQDINNYLNWYQQKPGKAPKLLIYDAFTLEAGVPSRFSGARFGTDFTFTISSLQPEDIATYYCHQCDNLPCTFGGGTKVEIK
B5: the binding result in test [1] and in test [2] was “binds” each time.

B6: XGV042 (antibody, V domains shown)
VH: QITLKESGPTLVKPTQTLTLTCTFSGLSMTTSGVGVGWIRQPPGKALEWLALIYWDDDKRYSPFLKSRLTITKDTSKNQVVLTMTNMDPADTGTYFCAHHTIPSIFDHWGQGTLVTVSS
VL: QSALTQPASVSGSPGQSITISCTATSSDVGVYNYVSWYQQYPGKAPRLIIFEVSNRPSGVSSRFSGSKSGYTASLTISGLQTDDEADYYCSSYTTTSTVFGGGTKLTVL
As to B6, the binding result in test [1] and in test [2] was “binds” each time.

B7: XGv285 (antibody, V domains shown)
VH: QVQLVQSGAEVKKPGASMKVSCKASGYTFISYYMHWVRQAPGQELEWMGIINPSGGSTSYAQKFQGRVTMTRDTSTSTVYMELRSLRSEDTAVYYCARAEGSSWLGWFDPWGQGTLVTVSS
VL: QSVLTQPPSASGTPGQRVTISCSGSSSNIGSNLVYWYQHLPGTAPKLLIYKNTQRPSGVPDRFSGSKSGTSASLAISGLRSDDEGDYYCAAWDDGLSGSGWVFGGGTKVT
For the molecule B7, the binding result in test [1] and in test [2] was “binds” each time.

B8: XGv290 (antibody, V domains shown)
VH: QVQLVQSGAEVKKPGASVKVSCKASGYTFKNYHMHWVRQAPGQGLEWMGIINPSGGGSSYAQKFQGRVTMTGDTSTSTVYMELSSLRSEDTAVYYCARAEGSSWLGWFDPWGQGTLVTVSS
VL: QSVLTQPPSASGTPGQRVTISCSGSSSNIGSNYVYWYQQLPGTAPKVLIYRNNQRPSGVPDRFSGSKSGTSASLAISGLRSEDEAEYYCAAWDDGLSGSGWLFGGGTKLT
B8: the binding result in test [1] and in test [2] was “binds” in each case.

B9: XGv286 (antibody, V domains shown)
VH: QVQLVQSGAEVKKPGASVKVSCKASGYTFSSYYIHWVRQAPGQGPEWMAIINPGDGGASYAQKFQGRVTLTRDTSTSTLYMELSSLRSEDTAVYYCARAEGSSWLGWFDPWGQGTLVTVSS
VL: QSVLTQPPSASGTPGQRVTISCSGSSSNIGSNYVYWYQQLPGTAPKLLIYRNNQRPSGVPDRFSGSRSGTSASLAISGLRSEDEADYYCAAWDDGLSGSGWVFGGGTKLT
With B9, the binding result in test [1] and in test [2] was “binds” each time.

B10: XGV050 (antibody, V domains shown)
VH: EVQLVESGGGLVQPGGSLRLSCAASGFTFSRYDMHWVRQAAGKGLEWVSGIGAPGDTYYAGSVKGRFTISRENAKTSLHLQMNNLRAGDTAVYYCTRGWFGENYMDVWGKGTTVTVSS
VL: EIVLTQSPATLSLSPGERATLSCRASQSVSNHLAWFQQKPGQSPRLLIYDASNRATGIPARFSGSGSGTDFTLTISSLEPEDFAIYYCHQRSNWPTFGQGTKVEIK
As for B10, the binding result in test [1] and in test [2] was “binds” in each case.

B11: XGv264 (antibody, V domains shown)
VH: QITLKESGPTLVKPTQTLTLTCAFSGFSLNTGGAGVGWIRQPPGKALEWLALIYWDGDKRYNPSLKSRLAIIMDTSKNRVVLTMTNMDPVDTATYYCAHHKIEYIFDYWGQGTLVAVSS
VL: QSALTQPASVSGSPGQSITVSCTGTSSDLGNFQYVSWYQHHPGKAPKLLIYEVSHRPSGVSNRFSGSKSGNTASLTISGLQAEDEADYYCCSYTTTTIPVAFGGGTRLTVL
In the case of B11, the binding result in test [1] and in test [2] was “binds” each time.

B12: XGV016 (antibody, V domains shown)
VH: QVQLVQSGTEVRKPGASVTVSCKASGYTFTTYHMHWVRRAPGQGLEWMGIIDPGTGGASYPQKFRGRVTLTRDTSTNTVYMELSSLRFQDTAIYYCARAEGSSWLGWFDPWGQGTLVTVSS
VL: QSVLTQPPSASGTPGQRVSISCSGSSSNIGTNYVYWYQQLPGTAPKLLIYKNNQRPSGVPDRFSGSKSGTSASLAISGLRSEDEADYFCASWDNGLSGSGWVFGGGTKLTV
Take B12: the binding result in test [1] and in test [2] was “binds” each time.

B13: XGv288 (antibody, V domains shown)
VH: QVQLVQSGAEVKKPGASVKVSCKASGYTFTNYYIHWVRQAPGQGLEWMAIINPSGGGASYAHKFQGRVTMTRDTSTSTLYMELISLRSDDTAVYYCARAEGSSWLGWFDPWGQGTLITVSS
VL: QSVLTQPPSASGTPGQRVTISCSGSSSNIGSNYVYWYQQLPGTAPKLLIYRNAQRPSGVPDRFSGSKSGTSASLAISGLRSEDEADYYCAAWDDGLSGSGWVFGGGTKLTV
With B13, the binding result in test [1] and in test [2] was “binds” throughout.

B14: XGv287 (antibody, V domains shown)
VH: QVQLVQSGAEVKKPGASVKVSCKTSGYTFTTYYMHWVRQAPGQGLEWMGIINPSDGSTNYAQKFQDRVTLTKDTSTSTFYMELSSLTSEDTAKYYCARAEGSSWLGWFDPWGQGTLVTVSS
VL: QSVLTQPPSASGTPGQRVTISCSGSNSNIGNHFVYWYQQLPGKAPKLLIYRNNQRPSGVPDRFSGSKSGTSASLAISGLRSEDEADYYCASWNDGLSASGWVFGGGTKLTV
With B14, the binding result in test [1] and in test [2] was “binds” each time.

B15: XGv261 (antibody, V domains shown)
VH: QLQLQESGPGLVRPSETLSLTCTVSGGSITDSGYYWGWIRQPPGKGLEWIGNIFYSGSTYYNPSLKSRVTISVDTSKNQFSLRLSSVTAADTAVYYCAREIGIIDYWGQGSLVIVSS
VL: DIQMTQSPSSLSASVGDRVTITCRASQGISNSLAWYQQKPGKAPKLLLYGASTLESGVPSRFSGSGSGTHFTLTISSLQPEDFATYFCQQYYSSPPRTFGGGTKVEI
Consider B15, for which the binding result in test [1] and in test [2] was “binds” throughout.

B16: XGV031 (antibody, V domains shown)
VH: QVQLVQSGAEVKKPGSSVKVSCKASGGTFSNYALSWVRQAPGQGLEWMGGIIPIFGTTNYAQNFQGRVTITADESTSTAYMELSSLRSEDTAVYYCARLDGYSFGHNRYYQDGMDDWGQGTTVTVSS
VL: DIQMTQSPSSLSASVGDRVTITCRASQAIRSDLGWYQQKPGKAPKCLIYAASTLQSGVPSRFSGSGSGTEFTLTISSLQPEDFATYYCLQQNIYPRTFGQGTKVEI
On to B16, for which the binding result in test [1] and in test [2] was “binds” each time.

B17: XGv055 (antibody, V domains shown)
VH: QVQLVQSGAEVKKPGSSVKVSCKASGGTFSSYALSWVRQAPGQGLEWMGGIIPIFGTTNYAQKFQGRVTITADESSSTAYMELSSLRSEDTAVYYCARLDGYSFGHNRYYQDGMDDWGQGTTVTVSS
VL: DIQMTQSPSSLSASVGDRVTITCRASQGIRNDLGWYQQKPGKAPKCLIYAASTLQSGVPSRFSGSGSGTEFTLTISSLQPEDFATYYCLQQNIYPRTFGQGTKVEIK
In the case of B17, the binding result in test [1] and in test [2] was “binds” throughout.

B18: XGv051 (antibody, V domains shown)
VH: QVQLVQSGAEVKKPGSSVKVSCKASGGTFSNYALSWVRQAPGQGLEWMGGIIPIFGTTNYAQKFQGRVTITADESTSTAYMELSSLRSEDTAVYYCARLDGYSFGHDRYYQDGMDDWGPGTTVTVSS
VL: DIQMTQSPSSLSASVGDRVTITCRASQAIRNDLGWYQQKPGKAPKCLIYAASTLQSGVPSRFSGSGSGTEFTLTISSLQPEDFATYFCLQQNIYPRTFGQGTKVEI
Consider B18, for which the binding result in test [1] and in test [2] was “binds” throughout.

B19: XGv053 (antibody, V domains shown)
VH: QVQLVQSGAEVKKPGSSVKVSCKASGGTFSSYALTWVRQAPGQGLEWMGGIIPIFGTTNYAQKFQGRVTITADESTSTAYMELTSLRSEDTAVYYCARLDGYSFGHNRYYQDGMDDWGQGTTVTVSS
VL: DIQMTQSPSSLSASVGDRVTITCRASQDIRNDLGWYQQKPGKAPKCLIYAASTLQSGVPSRFSGSGSGTEFTLTISSLQPEDFATYYCLQQNIYPRTFGQGTKVEIK
With B19, the binding result in test [1] and in test [2] was “binds” each time.
